Values of other authors as cited in PMC3597628.
Like-named read-outs stand apart in the source and are kept apart here.

Experiments:
[1] = biological target: (Pro)renin receptor (Homo sapiens) (UniProt O75787)
[2] = biological target: (Pro)renin receptor (Homo sapiens) (UniProt O75787); remark: listed apart in the source

Sequence of UniProt O75787 (O75787 17-302): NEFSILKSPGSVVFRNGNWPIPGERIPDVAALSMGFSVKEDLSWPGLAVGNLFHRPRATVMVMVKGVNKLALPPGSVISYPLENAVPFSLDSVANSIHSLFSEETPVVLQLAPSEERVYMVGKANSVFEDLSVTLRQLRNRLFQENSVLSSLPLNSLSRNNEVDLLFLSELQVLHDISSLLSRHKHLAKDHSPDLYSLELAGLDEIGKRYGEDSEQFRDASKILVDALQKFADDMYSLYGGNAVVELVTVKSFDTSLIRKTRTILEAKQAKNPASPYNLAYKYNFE

Kd [1] | Kd [2] | Substance
1.2 nM |  | Prorenin (from UniProt P00797)
 | 8.3 nM | Prorenin (from UniProt P08424)
